{"source": "patent US20160264649A1", "assay_in_all_cases": "cell-based or functional assay", "key": {"[1]": {"target": "HIV-1 MGRM-AG-002 Env (HIV-1)"}, "[2]": {"target": "HIV-1 92BR020 Env (HIV-1)"}, "[3]": {"target": "HIV-1 98CN006 Env on pseudovirus (HIV-1)"}, "[4]": {"target": "HIV-1 MGRM-C-001 Env on pseudovirus (HIV-1)"}, "[5]": {"target": "HIV-1 MGRM-D-002 Env (HIV-1)"}, "[6]": {"target": "HIV-1 MGRM-Chronic-B-008 Env on pseudovirus (HIV-1)"}, "[7]": {"target": "HIV-1 MGRM-AE-007 Env (HIV-1)"}, "[8]": {"target": "HIV-1 MGRM-D-008 Env (HIV-1)"}, "[9]": {"target": "HIV-1 MGRM-C-008 Env on pseudovirus (HIV-1)"}, "[10]": {"target": "HIV-1 MGRM-G-015 Env (HIV-1)"}, "HIV-1 APV-6 Env (HIV-1)": {"target": "HIV-1 APV-6 Env (HIV-1)"}, "HIV-1 APV-17 Env (HIV-1)": {"target": "HIV-1 APV-17 Env (HIV-1)"}, "aMLV envelope": {"target": "aMLV envelope"}, "[11]": {"target": "HIV-1 MGRM-C-025 Env on pseudovirus (HIV-1)"}, "[12]": {"target": "HIV-1 MGRM-D-005 Env (HIV-1)"}, "[13]": {"target": "HIV-1 94UG103 Env (HIV-1)"}, "[14]": {"target": "HIV-1 MGRM-AE-006 Env (HIV-1)"}, "[15]": {"target": "HIV-1 MGRM-G-013 Env (HIV-1)"}, "HIV-1 APV-13 Env (HIV-1)": {"target": "HIV-1 APV-13 Env (HIV-1)"}, "[16]": {"target": "HIV-1 MGRM-C-020 Env on pseudovirus (HIV-1)"}, "[17]": {"target": "HIV-1 MGRM-Chronic-B-004 Env on pseudovirus (HIV-1)"}, "[18]": {"target": "HIV-1 MGRM-G-009 Env (HIV-1)"}, "[19]": {"target": "HIV-1 MGRM-G-025 Env (HIV-1)"}, "[20]": {"target": "HIV-1 MGRM-C-022 Env on pseudovirus (HIV-1)"}, "[21]": {"target": "HIV-1 MGRM-AG-013 Env (HIV-1)"}, "[22]": {"target": "HIV-1 MGRM-C-012 Env on pseudovirus (HIV-1)"}, "[23]": {"target": "HIV-1 APV_17 Env on pseudovirus (HIV-1)"}, "[24]": {"target": "HIV-1 MGRM-D-016 Env (HIV-1)"}, "[25]": {"target": "HIV-1 MGRM-AG-005 Env (HIV-1)"}, "[26]": {"target": "HIV-1 MGRM-C-002 Env on pseudovirus (HIV-1)"}, "[27]": {"target": "HIV-1 MGRM-F1-017 Env (HIV-1)"}, "[28]": {"target": "HIV-1 92TH021 Env (HIV-1)"}, "[29]": {"target": "HIV-1 VLGCB3 Env on pseudovirus (HIV-1)"}, "[30]": {"target": "HIV-1 MGRM-F1-015 Env (HIV-1)"}, "[31]": {"target": "HIV-1 MGRM-G-016 Env (HIV-1)"}, "[32]": {"target": "HIV-1 MGRM-Chronic-B-023 Env on pseudovirus (HIV-1)"}, "[33]": {"target": "HIV-1 MGRM-C-019 Env on pseudovirus (HIV-1)"}, "[34]": {"target": "HIV-1 MGRM-AE-008 Env (HIV-1)"}, "[35]": {"target": "HIV-1 97ZA012 Env on pseudovirus (HIV-1)"}, "[36]": {"target": "HIV-1 MGRM-F1-004 Env (HIV-1)"}, "[37]": {"target": "HIV-1 MGRM-Chronic-B-001 Env on pseudovirus (HIV-1)"}, "[38]": {"target": "HIV-1 MGRM-C-010 Env on pseudovirus (HIV-1)"}, "[39]": {"target": "HIV-1 MGRM-AG-011 Env (HIV-1)"}, "[40]": {"target": "HIV-1 MGRM-F1-018 Env (HIV-1)"}, "[41]": {"target": "HIV-1 MGRM-D-004 Env (HIV-1)"}, "[42]": {"target": "HIV-1 MGRM-AE-002 Env (HIV-1)"}, "[43]": {"target": "HIV-1 MGRM-C-009 Env on pseudovirus (HIV-1)"}, "[44]": {"target": "HIV-1 MGRM-A-008 Env (HIV-1)"}, "[45]": {"target": "HIV-1 MGRM-A-001 Env (HIV-1)"}, "[46]": {"target": "HIV-1 MGRM-A-005 Env (HIV-1)"}, "[47]": {"target": "HIV-1 MGRM-A-012 Env (HIV-1)"}, "[48]": {"target": "HIV-1 MGRM-A-004 Env (HIV-1)"}}, "data": [{"substance": "2G12 (antibody)", "values": [{"measurement": "IC50 (µg/ml), pseudovirus neutralization", "setting": "[1]", "result": 0.54, "unit": "µg/mL"}, {"measurement": "neutralization IC50", "setting": "[2]", "result": 2.26, "unit": "µg/mL"}, {"measurement": "neutralization IC90", "setting": "[2]", "result": 24.1, "unit": "µg/mL"}, {"measurement": "IC50", "setting": "[3]", "result": "> 50", "unit": "µg/mL"}, {"measurement": "IC50", "setting": "[4]", "result": 2.93, "unit": "µg/mL"}, {"measurement": "IC50 (µg/ml), pseudovirus neutralization", "setting": "[5]", "result": "> 50", "unit": "µg/mL"}, {"measurement": "IC50", "setting": "[6]", "result": 0.55, "unit": "µg/mL"}, {"measurement": "IC50 (µg/ml), pseudovirus neutralization", "setting": "[7]", "result": "> 50", "unit": "µg/mL"}, {"measurement": "IC50 (µg/ml), pseudovirus neutralization", "setting": "[8]", "result": "> 50", "unit": "µg/mL"}, {"measurement": "IC50", "setting": "[9]", "result": "> 50", "unit": "µg/mL"}, {"measurement": "IC50 (µg/ml), pseudovirus neutralization", "setting": "[10]", "result": "> 50", "unit": "µg/mL"}, {"measurement": "neutralization IC50", "setting": "HIV-1 APV-6 Env (HIV-1)", "result": 5.3, "unit": "µg/mL"}, {"measurement": "neutralization IC50", "setting": "HIV-1 APV-17 Env (HIV-1)", "result": "> 50", "unit": "µg/mL"}, {"measurement": "neutralization IC50", "setting": "aMLV envelope", "result": "> 50", "unit": "µg/mL"}, {"measurement": "neutralization IC90", "setting": "aMLV envelope", "result": "> 50", "unit": "µg/mL"}, {"measurement": "IC50", "setting": "[11]", "result": "> 50", "unit": "µg/mL"}, {"measurement": "IC50 (µg/ml), pseudovirus neutralization", "setting": "[12]", "result": 25.7, "unit": "µg/mL"}, {"measurement": "neutralization IC50", "setting": "[13]", "result": "> 50", "unit": "µg/mL"}, {"measurement": "neutralization IC90", "setting": "[13]", "result": "> 50", "unit": "µg/mL"}, {"measurement": "IC50 (µg/ml), pseudovirus neutralization", "setting": "[14]", "result": "> 50", "unit": "µg/mL"}, {"measurement": "IC50 (µg/ml), pseudovirus neutralization", "setting": "[15]", "result": "> 50", "unit": "µg/mL"}, {"measurement": "neutralization IC50", "setting": "HIV-1 APV-13 Env (HIV-1)", "result": 23.9, "unit": "µg/mL"}, {"measurement": "IC50", "setting": "[16]", "result": 18.6, "unit": "µg/mL"}, {"measurement": "IC50", "setting": "[17]", "result": 8.65, "unit": "µg/mL"}, {"measurement": "IC50 (µg/ml), pseudovirus neutralization", "setting": "[18]", "result": "> 50", "unit": "µg/mL"}, {"measurement": "IC50 (µg/ml), pseudovirus neutralization", "setting": "[19]", "result": 31.9, "unit": "µg/mL"}, {"measurement": "IC50", "setting": "[20]", "result": "> 50", "unit": "µg/mL"}, {"measurement": "IC50 (µg/ml), pseudovirus neutralization", "setting": "[21]", "result": 0.95, "unit": "µg/mL"}, {"measurement": "IC50", "setting": "[22]", "result": "> 50", "unit": "µg/mL"}, {"measurement": "IC50", "setting": "[23]", "result": "> 50", "unit": "µg/mL"}, {"measurement": "IC50 (µg/ml), pseudovirus neutralization", "setting": "[24]", "result": "> 50", "unit": "µg/mL"}, {"measurement": "IC50 (µg/ml), pseudovirus neutralization", "setting": "[25]", "result": "> 50", "unit": "µg/mL"}, {"measurement": "IC50", "setting": "[26]", "result": "> 50", "unit": "µg/mL"}, {"measurement": "IC50 (pseudovirus neutralization)", "setting": "[27]", "result": "> 50", "unit": "µg/mL"}, {"measurement": "IC50 (µg/ml), pseudovirus neutralization", "setting": "[28]", "result": "> 50", "unit": "µg/mL"}, {"measurement": "neutralization IC50", "setting": "[28]", "result": "> 50", "unit": "µg/mL"}, {"measurement": "neutralization IC90", "setting": "[28]", "result": "> 50", "unit": "µg/mL"}, {"measurement": "IC50", "setting": "[29]", "result": 7.9, "unit": "µg/mL"}, {"measurement": "IC50 (pseudovirus neutralization)", "setting": "[30]", "result": "> 50", "unit": "µg/mL"}, {"measurement": "IC50 (µg/ml), pseudovirus neutralization", "setting": "[31]", "result": "> 50", "unit": "µg/mL"}, {"measurement": "IC50", "setting": "[32]", "result": 0.16, "unit": "µg/mL"}, {"measurement": "IC50", "setting": "[33]", "result": "> 50", "unit": "µg/mL"}, {"measurement": "IC50 (µg/ml), pseudovirus neutralization", "setting": "[34]", "result": "> 50", "unit": "µg/mL"}, {"measurement": "IC50", "setting": "[35]", "result": "> 50", "unit": "µg/mL"}, {"measurement": "IC50 (pseudovirus neutralization)", "setting": "[36]", "result": "> 50", "unit": "µg/mL"}, {"measurement": "IC50", "setting": "[37]", "result": 0.08, "unit": "µg/mL"}, {"measurement": "IC50", "setting": "[38]", "result": "> 50", "unit": "µg/mL"}, {"measurement": "IC50 (µg/ml), pseudovirus neutralization", "setting": "[39]", "result": "> 50", "unit": "µg/mL"}, {"measurement": "IC50 (pseudovirus neutralization)", "setting": "[40]", "result": "> 50", "unit": "µg/mL"}, {"measurement": "IC50 (µg/ml), pseudovirus neutralization", "setting": "[41]", "result": "> 50", "unit": "µg/mL"}, {"measurement": "IC50 (µg/ml), pseudovirus neutralization", "setting": "[42]", "result": "> 50", "unit": "µg/mL"}, {"measurement": "IC50", "setting": "[43]", "result": "> 50", "unit": "µg/mL"}, {"measurement": "neutralization IC50", "setting": "[44]", "result": "> 50", "unit": "µg/mL"}, {"measurement": "neutralization IC50", "setting": "[45]", "result": "> 50", "unit": "µg/mL"}, {"measurement": "neutralization IC50", "setting": "[46]", "result": "> 50", "unit": "µg/mL"}, {"measurement": "neutralization IC50", "setting": "[47]", "result": "> 50", "unit": "µg/mL"}, {"measurement": "neutralization IC50", "setting": "[48]", "result": "> 50", "unit": "µg/mL"}]}]}
